# Paper doi:10.1101/2022.03.11.483953
# B1: full-length H. sapiens ROCK2, O75116 1-1388 (enzyme)
# chain: MSRPPPTGKMPGAPETAPGDGAGASRQRKLEALIRDPRSPINVESLLDGLNSLVLDLDFPALRKNKNIDNFLNRYEKIVKKIRGLQMKAEDYDVVKVIGRGAFGEVQLVRHKASQKVYAMKLLSKFEMIKRSDSAFFWEERDIMAFANSPWVVQLFYAFQDDRYLYMVMEYMPGGDLVNLMSNYDVPEKWAKFYTAEVVLALDAIHSMGLIHRDVKPDNMLLDKHGHLKLADFGTCMKMDETGMVHCDTAVGTPDYISPEVLKSQGGDGFYGRECDWWSVGVFLYEMLVGDTPFYADSLVGTYSKIMDHKNSLCFPEDAEISKHAKNLICAFLTDREVRLGRNGVEEIRQHPFFKNDQWHWDNIRETAAPVVPELSSDIDSSNFDDIEDDKGDVETFPIPKAFVGNQLPFIGFTYYRENLLLSDSPSCRETDSIQSRKNEESQEIQKKLYTLEEHLSNEMQAKEELEQKCKSVNTRLEKTAKELEEEITLRKSVESALRQLEREKALLQHKNAEYQRKADHEADKKRNLENDVNSLKDQLEDLKKRNQNSQISTEKVNQLQRQLDETNALLRTESDTAARLRKTQAESSKQIQQLESNNRDLQDKNCLLETAKLKLEKEFINLQSALESERRDRTHGSEIINDLQGRICGLEEDLKNGKILLAKVELEKRQLQERFTDLEKEKSNMEIDMTYQLKVIQQSLEQEEAEHKATKARLADKNKIYESIEEAKSEAMKEMEKKLLEERTLKQKVENLLLEAEKRCSLLDCDLKQSQQKINELLKQKDVLNEDVRNLTLKIEQETQKRCLTQNDLKMQTQQVNTLKMSEKQLKQENNHLMEMKMNLEKQNAELRKERQDADGQMKELQDQLEAEQYFSTLYKTQVRELKEECEEKTKLGKELQQKKQELQDERDSLAAQLEITLTKADSEQLARSIAEEQYSDLEKEKIMKELEIKEMMARHKQELTEKDATIASLEETNRTLTSDVANLANEKEELNNKLKDVQEQLSRLKDEEISAAAIKAQFEKQLLTERTLKTQAVNKLAEIMNRKEPVKRGNDTDVRRKEKENRKLHMELKSEREKLTQQMIKYQKELNEMQAQIAEESQIRIELQMTLDSKDSDIEQLRSQLQALHIGLDSSSIGSGPGDAEADDGFPESRLEGWLSLPVRNNTKKFGWVKKYVIVSSKKILFYDSEQDKEQSNPYMVLDIDKLFHVRPVTQTDVYRADAKEIPRIFQILYANEGESKKEQEFPVEPVGEKSNYICHKGHEFIPTLYHFPTNCEACMKPLWHMFKPPPALECRRCHIKCHKDHMDKKEEIIAPCKVYYDISTAKNLLLLANSTEEQQKWVSRLVKKIPKKPPAPDPFARSSPRTSMKIQQNQSIRRPSRQLAPNKPS
# Biological target: full-length H. sapiens ROCK2 (H. sapiens), O75116
# Experiment: rotary shadowing electron microscopy
# Conditions: remark: other sources report otherwise
binder,measurement,value
B1,stoichiometry N,2
